According to US20160368960A1:
Starred links: 1 amine or outer side, 2 acyl side, 3 side chain; linkers in the order of their positions; H or OH if unused. Non-standard residues stand in square brackets, D forms with d. Groups on a side chain read outwards from the residue. *: point of attachment. C20 diacid = O=C(O)CCCCCCCCCCCCCCCCCCC(=O)*; C18 diacid = O=C(O)CCCCCCCCCCCCCCCCC(=O)*; γGlu = O=C(O)[C@H](CCC(=O)[*:2])N[*:1]; AEEA = NCCOCCOCC(=O)O; Aib = CC(C)(N)C(=O)O

T1: human GLP-1 receptor (human), P43220
T1 chain: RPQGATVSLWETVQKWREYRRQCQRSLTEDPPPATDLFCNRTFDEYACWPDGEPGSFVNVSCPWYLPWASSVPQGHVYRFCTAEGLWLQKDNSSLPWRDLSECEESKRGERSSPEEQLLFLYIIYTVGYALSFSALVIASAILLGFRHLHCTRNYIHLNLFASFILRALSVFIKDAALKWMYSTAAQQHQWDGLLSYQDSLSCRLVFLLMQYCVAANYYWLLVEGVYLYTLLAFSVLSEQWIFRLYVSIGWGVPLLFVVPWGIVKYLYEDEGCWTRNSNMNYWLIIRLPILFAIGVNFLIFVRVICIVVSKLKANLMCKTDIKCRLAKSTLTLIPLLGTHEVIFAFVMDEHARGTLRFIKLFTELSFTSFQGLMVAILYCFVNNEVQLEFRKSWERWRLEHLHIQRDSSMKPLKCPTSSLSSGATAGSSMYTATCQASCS

T2: rat GLP-1-R (rat), P32301
T2 chain: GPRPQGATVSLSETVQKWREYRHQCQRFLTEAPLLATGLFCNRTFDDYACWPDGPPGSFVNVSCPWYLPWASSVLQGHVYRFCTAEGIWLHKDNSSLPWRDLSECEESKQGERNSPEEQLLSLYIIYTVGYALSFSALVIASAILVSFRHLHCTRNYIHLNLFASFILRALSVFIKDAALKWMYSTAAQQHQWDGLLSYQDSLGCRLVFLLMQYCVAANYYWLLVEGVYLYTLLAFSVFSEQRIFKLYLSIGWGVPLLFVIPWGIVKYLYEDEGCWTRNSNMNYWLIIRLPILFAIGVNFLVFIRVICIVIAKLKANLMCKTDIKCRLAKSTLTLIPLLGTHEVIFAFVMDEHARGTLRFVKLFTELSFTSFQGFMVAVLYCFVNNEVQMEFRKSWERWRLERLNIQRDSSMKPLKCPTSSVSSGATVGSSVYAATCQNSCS


Columns and labels:
[1] = target: human Gcg receptor (human), P47871; assay: radioligand competition SPA, displacement of I-125 Gcg, hGcg-R 293HEK membranes
Sequence of human Gcg receptor (human), P47871 (P47871 26-477): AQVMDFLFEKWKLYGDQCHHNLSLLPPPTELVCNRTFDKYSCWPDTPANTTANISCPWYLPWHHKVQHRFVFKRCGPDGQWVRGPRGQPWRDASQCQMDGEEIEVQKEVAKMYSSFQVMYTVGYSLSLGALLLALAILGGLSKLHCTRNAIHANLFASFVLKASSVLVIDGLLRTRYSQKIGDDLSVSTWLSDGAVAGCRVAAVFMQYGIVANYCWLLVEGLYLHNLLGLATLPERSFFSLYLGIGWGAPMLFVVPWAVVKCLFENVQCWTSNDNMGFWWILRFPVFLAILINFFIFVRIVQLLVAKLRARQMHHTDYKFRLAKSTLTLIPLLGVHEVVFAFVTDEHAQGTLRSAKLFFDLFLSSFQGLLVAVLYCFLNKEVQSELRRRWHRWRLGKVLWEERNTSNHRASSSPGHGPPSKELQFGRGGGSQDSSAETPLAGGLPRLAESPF

[2] = target: T1, human GLP-1 receptor (human), P43220; assay: cell-based or functional assay
[3] = target: human Gcg receptor (human), P47871; assay: cell-based or functional assay
[4] = target: T1, human GLP-1 receptor (human), P43220; assay: radioligand competition SPA, displacement of I-125 GLP-1, hGLP-1-R 293HEK membranes
[5] = target: T2, rat GLP-1-R (rat), P32301; assay: cell-based or functional assay

| Ki [1] [nM] | EC50, cAMP production [2] [nM] | Emax, cAMP production [2] [%] | EC50, cAMP production [3] [nM] | Emax, cAMP production [3] [%] | Ki [4] [nM] | EC50 (nM), cAMP production in INS1 832-3 cells [5] [nM] | Emax (%), cAMP production in INS1 832-3 cells [5] [%] | EC50 (nM), cAMP production in primary human hepatocytes [3] [nM] | Binder |
| --- | --- | --- | --- | --- | --- | --- | --- | --- | --- |
| 27.4 | 106 | 85.2 | 68.8 | 116 | 20.2 | – | – | – | H-H[Aib]QGTFTSDYSKYLDEKKAK([AEEA-AEEA-γGlu-γGlu-C20 diacid])EFVEWLLSGGPSSG-NH2 (SMILES CC(C)C[C@H](NC(=O)[C@H](CC(C)C)NC(=O)[C@H](Cc1c[nH]c2ccccc12)NC(=O)[C@H](CCC(=O)O)NC(=O)[C@@H](NC(=O)[C@H](Cc1ccccc1)NC(=O)[C@H](CCC(=O)O)NC(=O)[C@H](CCCCNC(=O)COCCOCCNC(=O)COCCOCCNC(=O)CC[C@H](NC(=O)CC[C@H](NC(=O)CCCCCCCCCCCCCCCCCCC(=O)O)C(=O)O)C(=O)O)NC(=O)[C@H](C)NC(=O)[C@H](CCCCN)NC(=O)[C@H](CCCCN)NC(=O)[C@H](CCC(=O)O)NC(=O)[C@H](CC(=O)O)NC(=O)[C@H](CC(C)C)NC(=O)[C@H](Cc1ccc(O)cc1)NC(=O)[C@H](CCCCN)NC(=O)[C@H](CO)NC(=O)[C@H](Cc1ccc(O)cc1)NC(=O)[C@H](CC(=O)O)NC(=O)[C@H](CO)NC(=O)[C@@H](NC(=O)[C@H](Cc1ccccc1)NC(=O)[C@@H](NC(=O)CNC(=O)[C@H](CCC(N)=O)NC(=O)C(C)(C)NC(=O)[C@@H](N)Cc1c[nH]cn1)[C@@H](C)O)[C@@H](C)O)C(C)C)C(=O)N[C@@H](CO)C(=O)NCC(=O)NCC(=O)N1CCC[C@H]1C(=O)N[C@@H](CO)C(=O)N[C@@H](CO)C(=O)NCC(N)=O) [Compound 4] |
| 17.7 | 83.1 | 107 | 26.5 | – | 28.6 | 62 | 104 | 159 | H-H[Aib]QGTFTSDYSKYLDEKKAK([AEEA-AEEA-γGlu-C20 diacid])EFVEWLLEGGPSSG-NH2 [Compound 2] |
| 14.6 | 23.9 | 104 | 7.21 | – | 23 | 26.1 | 112 | 99.9 | H-H[Aib]QGTFTSDYSKYLDEKKAK([AEEA-AEEA-γGlu-C18 diacid])EFVEWLLEGGPSSG-NH2 (SMILES CC(C)C[C@H](NC(=O)[C@H](CC(C)C)NC(=O)[C@H](Cc1c[nH]c2ccccc12)NC(=O)[C@H](CCC(=O)O)NC(=O)[C@@H](NC(=O)[C@H](Cc1ccccc1)NC(=O)[C@H](CCC(=O)O)NC(=O)[C@H](CCCCNC(=O)COCCOCCNC(=O)COCCOCCNC(=O)CC[C@H](NC(=O)CCCCCCCCCCCCCCCCC(=O)O)C(=O)O)NC(=O)[C@H](C)NC(=O)[C@H](CCCCN)NC(=O)[C@H](CCCCN)NC(=O)[C@H](CCC(=O)O)NC(=O)[C@H](CC(=O)O)NC(=O)[C@H](CC(C)C)NC(=O)[C@H](Cc1ccc(O)cc1)NC(=O)[C@H](CCCCN)NC(=O)[C@H](CO)NC(=O)[C@H](Cc1ccc(O)cc1)NC(=O)[C@H](CC(=O)O)NC(=O)[C@H](CO)NC(=O)[C@@H](NC(=O)[C@H](Cc1ccccc1)NC(=O)[C@@H](NC(=O)CNC(=O)[C@H](CCC(N)=O)NC(=O)C(C)(C)NC(=O)[C@@H](N)Cc1c[nH]cn1)[C@@H](C)O)[C@@H](C)O)C(C)C)C(=O)N[C@@H](CCC(=O)O)C(=O)NCC(=O)NCC(=O)N1CCC[C@H]1C(=O)N[C@@H](CO)C(=O)N[C@@H](CO)C(=O)NCC(N)=O) [Compound 1] |
| 37.3 | 34.3 | 105 | 15.3 | 104 | 8.68 | – | – | – | H-H[Aib]QGTFTSDYSKYLDEKKAK([AEEA-AEEA-γGlu-γGlu-C18 diacid])EFVEWLLSGGPSSG-NH2 (SMILES CC(C)C[C@H](NC(=O)[C@H](CC(C)C)NC(=O)[C@H](Cc1c[nH]c2ccccc12)NC(=O)[C@H](CCC(=O)O)NC(=O)[C@@H](NC(=O)[C@H](Cc1ccccc1)NC(=O)[C@H](CCC(=O)O)NC(=O)[C@H](CCCCNC(=O)COCCOCCNC(=O)COCCOCCNC(=O)CC[C@H](NC(=O)CC[C@H](NC(=O)CCCCCCCCCCCCCCCCC(=O)O)C(=O)O)C(=O)O)NC(=O)[C@H](C)NC(=O)[C@H](CCCCN)NC(=O)[C@H](CCCCN)NC(=O)[C@H](CCC(=O)O)NC(=O)[C@H](CC(=O)O)NC(=O)[C@H](CC(C)C)NC(=O)[C@H](Cc1ccc(O)cc1)NC(=O)[C@H](CCCCN)NC(=O)[C@H](CO)NC(=O)[C@H](Cc1ccc(O)cc1)NC(=O)[C@H](CC(=O)O)NC(=O)[C@H](CO)NC(=O)[C@@H](NC(=O)[C@H](Cc1ccccc1)NC(=O)[C@@H](NC(=O)CNC(=O)[C@H](CCC(N)=O)NC(=O)C(C)(C)NC(=O)[C@@H](N)Cc1c[nH]cn1)[C@@H](C)O)[C@@H](C)O)C(C)C)C(=O)N[C@@H](CO)C(=O)NCC(=O)NCC(=O)N1CCC[C@H]1C(=O)N[C@@H](CO)C(=O)N[C@@H](CO)C(=O)NCC(N)=O) [Compound 3] |
